{"source": "IntAct's records for PubMed 25512093", "target": "bicd2_human BICD2 (UniProt Q8TD16)", "sequence (Q8TD16 whole entry)": "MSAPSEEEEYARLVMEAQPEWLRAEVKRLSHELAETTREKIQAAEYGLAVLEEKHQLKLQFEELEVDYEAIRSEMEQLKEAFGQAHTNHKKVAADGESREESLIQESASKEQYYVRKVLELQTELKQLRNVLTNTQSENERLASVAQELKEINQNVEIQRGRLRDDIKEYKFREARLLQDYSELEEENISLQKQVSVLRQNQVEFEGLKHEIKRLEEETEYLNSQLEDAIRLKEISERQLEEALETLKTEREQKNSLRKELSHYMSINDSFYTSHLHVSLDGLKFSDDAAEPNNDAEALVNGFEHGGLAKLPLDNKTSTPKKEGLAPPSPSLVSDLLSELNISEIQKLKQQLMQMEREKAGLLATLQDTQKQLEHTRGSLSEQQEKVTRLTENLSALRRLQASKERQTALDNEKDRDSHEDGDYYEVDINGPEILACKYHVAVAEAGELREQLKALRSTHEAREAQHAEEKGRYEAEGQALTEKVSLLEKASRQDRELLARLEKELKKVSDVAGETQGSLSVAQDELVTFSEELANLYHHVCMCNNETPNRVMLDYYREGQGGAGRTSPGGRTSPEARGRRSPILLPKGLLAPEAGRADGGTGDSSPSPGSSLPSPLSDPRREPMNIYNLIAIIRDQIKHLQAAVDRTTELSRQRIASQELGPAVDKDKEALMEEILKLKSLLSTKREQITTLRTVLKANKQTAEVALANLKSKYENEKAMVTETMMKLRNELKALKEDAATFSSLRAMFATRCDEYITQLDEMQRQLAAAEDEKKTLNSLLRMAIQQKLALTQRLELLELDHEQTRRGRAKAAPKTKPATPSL"}
{"substance": "Cytoplasmic dynein 1 heavy chain 1 (Homo sapiens), Q14204 R264L", "values": [{"measurement": "effect of a mutation on the interaction", "value": "increasing interaction strength"}]}
{"substance": "Cytoplasmic dynein 1 heavy chain 1 (Homo sapiens), Q14204 R598C", "values": [{"measurement": "effect of a mutation on the interaction", "value": "increasing interaction strength"}]}
